assay: soluble on expression in E. coli; label from the status in PepcDB or PDB records

Sequence	soluble on expression in E. coli
MVRGFYLRFGEGVSEEANRRALALAEALLRAPPPGLLDAVPAYGVLYLEYDPRRLSRGRLLRLLKGLPQERAEEGRVVEIPVRYDGEDLPEVASRLGLSLEAVKALHQKPLYRVYALGFTPGFPFLAEVEPALRLPRKPHPRPRVPAHAVAVAGVQTGIYPLPSPGGWNLLGTSLVAVYDPHRETPFLLRPGDRVRFLEAEGPTPPEPRPLELLPEEPRLPALLVEEPGLMDLVVDGGRFLGGHLGLARSGPLDAPSARLANRLVGNGAGAPLLEFAYKGPVLTALRDLVAAFAGYGFVALLEGEEIPPGQSFLWPRGKTLRFRPRGPGVRGYLAVAGGLEVRPFLGSASPDLRGRIGRPLWAGDVLGLEALRPVRPGRAFPQRPLPEAFRLRLLPGPQFAGEAFRALCSGPFRVARADRVGVELLGPEVPGGEGLSEPTPLGGVQVPPSGRPLVLLADKGSLGGYAKPALVDPRDLWLLGQARPGVEIHFTSG	soluble
MVSAKDFSGAELYTLEEVQYGKFEARMKMAAASGTVSSMFLYQNGSEIADGRPWVEVDIEVLGKNPGSFQSNIITGKAGAQKTSEKHHAVSPAADQAFHTYGLEWTPNYVRWTVDGQEVRKTEGGQVSNLTGTQGLRFNLWSSESAAWVGQFDESKLPLFQFINWVKVYKYTPGQGEGGSDFTLDWTDNFDTFDGSRWGKGDWTFDGNRVDLTDKNIYSRDGMLILALTRKGQESFNGQVPRD	soluble
MVSAPASASSSPASSSFQSFFWQAAARPRAEPKRQALKRITLMTTDKTSPYEIHDDRFRHLIVGNAELEELYSGCRWAEGPVWFADLNCLLFSDIPNERMLRWVPDGGISVFRQPSNFTNGNTRDRQGRLVSCEHGGRRVTRTEVDGSITVLADSYGGKRLNSPNDVVVKSDGSVWFTDPTYGILSDYEGYKAEPEQKTRNVYRLDPATGKIDIAIDDFVQPNGLAFSPDETKLYVADSSYSHDISRPRHIRVFDVVDGVRLANGREFCNLDNGLPDGFRLDTAGNLWTSAGDGVHCFAPDGRLIGKIKVPQTVANLTFGGPKKNRLFITATKSLYSVYVAATGAQTPLEHHHHHH	soluble
MVSETSEETLYCIGCGAAIQTTDPKAAGYTPNSALQKSLASEAQDLYCQRCFRLRHYNEIVPVGLTDDDFRHLLATIRDANALVVYVVDIFDLNGSIIPGLQRFVGDNPVLLVGNKEDVLPRQLRRTKLREWMNQQVRAQGIKPVDVALTSAKKGHSIDELLAMIEKYRRGRDVYVVGVTNVGKSTLINRIIANNTGLKDLITTSRFPGTTLDKIEIPLDDGHMMVDTPGIIHPEQMAHVLSGDDLKLVSPQREIRPKGFQLGNGQTLFLGGVARLDIVDTLKATGTVYVDNNLPLHRTRTENADNFYTKHVGELITPPTGDAVADFPPLVRHEFKVTEISDIVFEGLGWVTVAADTRVAAWAPKGVAVLTRPAMINKRLEHHHHHH	soluble
MVSSSSGLPSHRGPILSALYPGNGRGGYTASRGIHTSLLFRHRNAKLAWMIPRRLQPLLEARLEKVPVVVLTGPRQAGKTTLALEVAQRREALYLDLESEADRAKLSAPELYLEAHLGRLVILDEVHRMPGLFPLLRSLVDRARRRGLRNGLYLLLGSLAPEVSRQAGESLAGRASYLELSPFDLLEVGREAEPVLWLRGGFPESFLALEDEESFRWRMDFLRSYVEREIPLLGGRLPAEVLRRFLTMLAHLQGELLNASALARNLGLDGRTVNRYLDFLVDLYLLRRLPPLEANVGKRLVKSPKLYLRDSGLVHALLGIRTLEDLLAHPVVGRSYEGFVVENLLRVLPEGGEAYFYRTRAGAEVDLVLLLPGGRFWAVEVKRSLDPRPSRGFHEALKDLKPQEAFVIYPGGETFPVGEGVFAAPLGAVMERLWRG	soluble
MVSYQILLLLVSILPLTYSIRTSKWHFSGKLLCPLYTFKYHLEVFEEDYFRKTDDLLTNQTEVSSISPHLYKVDAEETDDGLDFGRHFEIYMLIIHDCNPDRYVKSLKVDWGKYHIDIEFVTFYALKFEIFSEVSEVKDIDVFGKGSAL	not soluble
MVTCGSIFIIRIACKDKKGQASGKDNKEKRVFRAVTGNKSESYFPFGHIFIFSQGATRTDEKSFLLSEDYEPKTVGLRCVFWRKHAREIFRFGSKNFYFSRHNEKIFAPRLFQPYSGFFSNDKREKVSMCHR	not soluble
MVTEKTLRTCEQGHEYYKSSDCPTCPVCEKERKPKESFLSLLSAPARRALEHRGIQTVEELSKYSEKEILKLHGMGPASLPKLKKVLEESWLSFK	not soluble
MVTETLSRKADYNANKLRKRLRRLVGTAIADFNMIEKGDRVMVCLSGGKDSYALLDILRNLQAHAPLDFELIAVNLDQKQPGFPEHVLPGYLSEINMPFRIVEQDTYSVVKRVIAEGKTTCSLCSRLRRGVLYRVATELGATKIALGHHRDDILETFFLNMFYGGKLKAMPPKLVSDDGCHVVIRPLAYCKEKDLAAYAWHAQFPIIPCNLCGSQPNLQRQVIKEMMQQWDKKYPGRLETMFTALQNIQLSHLADTSRYDFVGLKPHGIAIEEGDKAFDEEPLSVIPVDMDHDDDSTFEPENEHDGGAVQGGVI	not soluble
MVTKRIIPCLDVHNGRVVKGVNFVNIRDAGDPVEIASYYDKAGADELTFLDITASAEARNIMIDVVRRVAEQVFIPFTVGGGIRTVEDFREILKAGADKVSINSAAVKRPELISEAASRFGSQCVVVAIDAKRRDDNSGWDVYINGGRINTGKDAVEWAVEVEKLGAGEILLTSMDCDGTKKGYDIELTRKVSESVRIPVIASGGAGTMEHFREALVEGKADAVLAASLFHYREIEIMELKKYLKENGIEIRM	not soluble
MVTLASHLDACPDAAIWGSSKTENLGVEKIIVNVISNSNIRYVLVCGTESRGHLAGHSLLAIHANGIDEQGRITGSQGAIPFIENISGTAVERFQQQVTVLNRIGLNDPEEIRRIVEDYRDKGEAYPEEPMLVCAPKKRQTSFAVPTSGDVIISGEFVMDSKAGIIYTAESL	not soluble
MVTSKKCPTCHGKRLSTSVLKCKINNLDIADFTNLSIDDALKFIKKIDSPKANVIIEPLQQQLESLSYIGLNYLTLSRESTSLSGGESQRIKLIRHLNSALSDLVYIIDEPSIGLHPEDIQRINEIILSLKNKGNTVLVVEHDPDVIKIADYIIDLGPLAGKYGGDITFTGSYHELLNSTTHTGDALRRMHQLKSPNLSASNFINLKNVSRNNIKNMTVTLPEQAMTVVTGVAGSGKSSLIHTGLEALADTIFIDQKPAHASSRSNLLTYLNIFDDVRSYFSEVTGLKKSLFSYNSAGACPECHGKGIIKTELAFMPDFTQTCDVCHGKRYKPEVLDVKVEGYNIADILALTVDEAITFFNKNKDIAQPLQALKSTGLNYMTLGQTLDTLSGGEVQRVKLSKYLTKTVHQHIFVFDEPTTGLHEDDIPILIDCFKRLIDEHNTVVIIEHNLTMMTYADWIIDIGPFAGEKGGQLLYQGEPQGLLQINASLTAKHLKRYTERLEHHHHHH	soluble
MVVGGFGVGKTTMVRSVSEIRPLNTEETMTQAGEAVDDISEVRGKSATTVAFDFGRISLDARNVLYLFGAPGQERFWFLWDRLFSGTLGAVVLVDTRRIDDSWYAIDRLEHHGTPFIVACNDFGGPEHSPEAVREALDLDPRVPLVSCDARSRQSSKQVLITLVEHLQAHYAGPTARPRQEFALEHHHHHH	not soluble
MVVKIKGKVFVFGDNVNTDEIIPARYLNTSDPQELAKYCMEDARPGFGRRDDIKGSIIVAGENFGCGSSREHAPVAIKAAGISCVIAKSFARIFFRNAINIGLPIVELKEADEFEEGDIAEVDLENGVVRNLTKGKEYRIRPYPEFLMKIMEAGGWLEYCLKEVGE	soluble
MVVSAMAGLEENGSEPTAPRADPQGDPFLRTRFALPTRPGTFLRRERLVRHLDHALRTPLTMVNGAAGAGKTLLVADWAAGQDRSVAWLTTDAADQGCGTFWAYLLQALRACDVPLPAEVGFPADANRVDHTLLARLAADLSVRDRPVVVVLDEYDRVTDPEIADQLEFV	not soluble
MVVSIGVFDGVHIGHQKVLRTMKEIAFFRKDDSLIYTISYPPEYFLPDFPGLLMTVESRVEMLSRYARTVVLDFFRIKDLTPEGFVERYLSGVSAVVVGRDFRFGKNASGNASFLRKKGVEVYEIEDVVVQGKRVSSSLIRNLVQEGRVEEIPAYLGRYFEIEGIVHKDREFGRKLGFPTANIDRGNEKLVDLKRGVYLVRVHLPDGKKKFGVMNVGFRPTVGDARNVKYEVYILDFEGDLYGQRLKLEVLKFMRDEKKFDSIEELKAAIDQDVKSARNMIDDIINSKFEKEG	soluble

— the DeepSol protein solubility set
